The target of assay [1] is α4β1 integrin (on J6.77 cells) (UniProt P13612). Briefly: cell-based or functional assay.
The target of assay [2] is mouse αVβ6 on cells (mouse) (UniProt P43406). In words: FACS, K562 cells expressing mouse αVβ6 (parental 46). On the technique in general: A flow cytometer gives signals particle by particle.
Assay [3] has as its target mouse β6 (HEK-293 cells transfected with mouse β6 alone) (mouse) (UniProt Q9Z0T9). Briefly: FACS, HEK-293 transfected with mouse β6.
The target of assay [4] is cynomolgus β6 (HEK-293 cells transfected with cynomolgus β6 alone) (cynomolgus). In words: FACS, HEK-293 transfected with cynomolgus β6.
For assay [5], the target named is cynomolgus αV (HEK-293 cells transfected with cynomolgus αV alone) (cynomolgus). Briefly: FACS, HEK-293 transfected with cynomolgus αV.
For assay [6], the target named is mouse αVβ6 on cells (mouse) (UniProt P43406). Briefly: FACS, HEK-293 transfected with mouse αVβ6.
The target of assay [7] is mouse αV (HEK-293 cells transfected with mouse αV alone) (mouse) (UniProt P43406). Briefly: FACS, HEK-293 transfected with mouse αV.
Chain of mouse αV (HEK-293 cells transfected with mouse αV alone) (mouse) (P43406 31-1044): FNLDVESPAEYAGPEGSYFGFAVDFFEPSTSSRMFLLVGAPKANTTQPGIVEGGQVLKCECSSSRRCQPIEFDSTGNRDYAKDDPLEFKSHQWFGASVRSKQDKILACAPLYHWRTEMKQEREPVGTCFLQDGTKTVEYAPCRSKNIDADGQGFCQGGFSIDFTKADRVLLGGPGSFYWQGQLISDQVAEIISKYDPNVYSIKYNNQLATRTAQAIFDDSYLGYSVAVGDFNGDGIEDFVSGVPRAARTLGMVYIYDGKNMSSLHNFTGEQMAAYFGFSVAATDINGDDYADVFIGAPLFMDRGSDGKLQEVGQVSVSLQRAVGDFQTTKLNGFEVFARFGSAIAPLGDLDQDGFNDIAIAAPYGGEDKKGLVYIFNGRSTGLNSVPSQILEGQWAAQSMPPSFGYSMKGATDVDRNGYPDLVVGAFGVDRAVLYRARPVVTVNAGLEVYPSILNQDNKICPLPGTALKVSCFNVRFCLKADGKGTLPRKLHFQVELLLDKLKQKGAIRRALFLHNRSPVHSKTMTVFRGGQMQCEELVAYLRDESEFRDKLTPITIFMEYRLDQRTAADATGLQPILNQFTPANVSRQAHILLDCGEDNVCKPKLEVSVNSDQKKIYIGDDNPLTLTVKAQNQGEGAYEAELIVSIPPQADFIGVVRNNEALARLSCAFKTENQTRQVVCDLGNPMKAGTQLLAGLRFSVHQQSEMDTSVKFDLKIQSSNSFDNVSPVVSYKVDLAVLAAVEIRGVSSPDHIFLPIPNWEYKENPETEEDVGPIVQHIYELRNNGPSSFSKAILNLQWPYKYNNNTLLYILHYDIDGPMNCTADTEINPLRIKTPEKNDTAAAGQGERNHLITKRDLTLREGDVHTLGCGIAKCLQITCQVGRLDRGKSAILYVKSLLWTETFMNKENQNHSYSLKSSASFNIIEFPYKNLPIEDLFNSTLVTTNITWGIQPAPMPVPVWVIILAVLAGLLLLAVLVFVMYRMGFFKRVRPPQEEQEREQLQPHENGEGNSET
The target in assay [8] is cynomolgus αVβ6 on cells (cynomolgus). Briefly: FACS, HEK-293 transfected with cynomolgus αVβ6.
The target is the same in assay [9]. Briefly: FACS, K562 cells expressing cynomolgus αVβ6 (parental 46).
Assay [10] concerns the target human αV on parental A375M cells, which express αVβ3 and αVβ5, but not αVβ6 (human) (UniProt P06756). In words: cell-based or functional assay.
Assay [11] concerns the target α5β1 integrin (on K562 cells) (UniProt P08648). In words: cell-based or functional assay.
The target in assay [12] is cynomolgus αVβ6 on cells (cynomolgus). Briefly: FACS, HEK-293 transfected with cynomolgus αV and β6, day 2.
The target is the same in assay [13]. In words: FACS, HEK-293 transfected with cynomolgus αV and β6, day 1.
Assay [14] addresses human αV on parental A375M cells, which express αVβ3 and αVβ5, but not αVβ6 (human) (UniProt P06756). Briefly: FACS, parental A375M cells, day 1.
Assay [15] shares this target. Briefly: FACS, parental A375M cells, day 2.
The target of assay [16] is mouse αVβ6 on cells (mouse) (UniProt P43406). In words: FACS, K562 cells expressing mouse αVβ6 (parental 12).
Assay [17] concerns the target cynomolgus αVβ6 on cells (cynomolgus). Briefly: FACS, K562 cells expressing cynomolgus αVβ6 (parental 12).
Assay [18] shares this target. In words: FACS, K562 cells expressing cynomolgus αVβ6 (parental 23).
For assay [19], the target named is mouse αVβ6 on cells (mouse) (UniProt P43406). Briefly: FACS, K562 cells expressing mouse αVβ6 (parental 23).
Assay [20] addresses human αVβ6 integrin on cells (human) (UniProt P06756). In words: cell-based or functional assay.
The target in assay [21] is soluble αVβ6 (human) (UniProt P06756). In words: ELISA on coated soluble αVβ6, 1 ug/mL. In general terms: ELISA stands for enzyme-linked immunosorbent assay.
Assay [22] has as its target cynomolgus αVβ6 on cells (cynomolgus). Briefly: FACS, K562 cells expressing cynomolgus αVβ6 (parental 15).
In assay [23] the target is mouse αVβ6 on cells (mouse) (UniProt P43406). Briefly: FACS, K562 cells expressing mouse αVβ6 (parental 15).
For assay [24], the target named is human αVβ6 integrin on cells (human) (UniProt P06756). In words: FMAT, HEK 293 cells overexpressing αVβ6, 1 ug/mL.
Chain of human αVβ6 integrin on cells (human) (P06756 31-1048, chain 1 of 2): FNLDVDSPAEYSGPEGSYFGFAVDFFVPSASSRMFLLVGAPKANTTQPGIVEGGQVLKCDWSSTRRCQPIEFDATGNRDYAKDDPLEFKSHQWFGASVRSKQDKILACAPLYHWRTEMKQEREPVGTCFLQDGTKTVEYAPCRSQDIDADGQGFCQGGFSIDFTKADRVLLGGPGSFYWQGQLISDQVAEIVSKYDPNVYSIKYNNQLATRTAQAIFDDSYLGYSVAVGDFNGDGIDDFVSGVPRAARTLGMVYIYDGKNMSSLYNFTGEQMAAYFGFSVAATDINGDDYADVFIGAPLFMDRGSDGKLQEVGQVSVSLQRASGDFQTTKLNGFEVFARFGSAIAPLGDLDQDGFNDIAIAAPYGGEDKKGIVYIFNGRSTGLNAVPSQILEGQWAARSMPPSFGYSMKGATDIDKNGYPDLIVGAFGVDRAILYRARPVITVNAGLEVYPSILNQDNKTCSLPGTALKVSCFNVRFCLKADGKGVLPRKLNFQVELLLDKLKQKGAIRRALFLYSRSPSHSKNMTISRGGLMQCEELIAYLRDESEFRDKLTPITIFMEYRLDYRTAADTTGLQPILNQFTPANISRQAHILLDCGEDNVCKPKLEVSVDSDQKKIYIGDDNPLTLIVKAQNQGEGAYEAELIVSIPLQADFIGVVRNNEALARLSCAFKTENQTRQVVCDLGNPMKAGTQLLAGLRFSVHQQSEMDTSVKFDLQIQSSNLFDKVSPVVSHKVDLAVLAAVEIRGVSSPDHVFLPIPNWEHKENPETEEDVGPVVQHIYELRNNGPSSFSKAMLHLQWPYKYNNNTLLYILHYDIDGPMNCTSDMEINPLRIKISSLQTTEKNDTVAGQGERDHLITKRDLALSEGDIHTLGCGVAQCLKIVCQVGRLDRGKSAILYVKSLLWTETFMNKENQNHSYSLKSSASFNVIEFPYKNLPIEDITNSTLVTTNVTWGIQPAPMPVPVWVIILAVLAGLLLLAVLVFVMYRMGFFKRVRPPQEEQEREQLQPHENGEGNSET
Chain of human αVβ6 integrin on cells (human) (P18564 22-788, chain 2 of 2, further chain): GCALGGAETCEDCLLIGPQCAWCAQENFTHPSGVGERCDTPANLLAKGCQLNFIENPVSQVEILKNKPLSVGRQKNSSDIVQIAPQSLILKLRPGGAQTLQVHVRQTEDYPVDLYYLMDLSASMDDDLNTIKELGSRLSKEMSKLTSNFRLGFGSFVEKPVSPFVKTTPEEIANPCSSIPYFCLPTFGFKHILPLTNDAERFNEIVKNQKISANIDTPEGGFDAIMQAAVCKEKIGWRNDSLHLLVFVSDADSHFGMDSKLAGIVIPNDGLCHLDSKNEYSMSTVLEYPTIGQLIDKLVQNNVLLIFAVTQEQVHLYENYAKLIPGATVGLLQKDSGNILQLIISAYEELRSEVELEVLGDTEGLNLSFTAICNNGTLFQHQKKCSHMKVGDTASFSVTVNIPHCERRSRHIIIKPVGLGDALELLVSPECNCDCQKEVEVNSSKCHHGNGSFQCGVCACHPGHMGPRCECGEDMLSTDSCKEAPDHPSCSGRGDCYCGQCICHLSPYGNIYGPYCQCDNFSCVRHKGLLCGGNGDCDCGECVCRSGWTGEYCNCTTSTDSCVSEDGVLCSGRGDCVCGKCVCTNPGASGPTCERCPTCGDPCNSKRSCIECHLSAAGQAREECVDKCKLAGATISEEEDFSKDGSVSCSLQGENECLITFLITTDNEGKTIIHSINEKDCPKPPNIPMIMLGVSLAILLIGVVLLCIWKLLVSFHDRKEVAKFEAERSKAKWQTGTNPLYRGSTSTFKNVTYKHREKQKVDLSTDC

Chain of human αV on parental A375M cells, which express αVβ3 and αVβ5, but not αVβ6 (human) (P06756 31-1048 A375M): as the sequence (P06756 31-1048, chain 1 of 2) above, with A345M counted along it
Chain of mouse αVβ6 on cells (mouse) (P43406 31-1044, chain 1 of 2): as the sequence (P43406 31-1044) above
Chain of mouse αVβ6 on cells (mouse) (Q9Z0T9 22-787, chain 2 of 2, further chain): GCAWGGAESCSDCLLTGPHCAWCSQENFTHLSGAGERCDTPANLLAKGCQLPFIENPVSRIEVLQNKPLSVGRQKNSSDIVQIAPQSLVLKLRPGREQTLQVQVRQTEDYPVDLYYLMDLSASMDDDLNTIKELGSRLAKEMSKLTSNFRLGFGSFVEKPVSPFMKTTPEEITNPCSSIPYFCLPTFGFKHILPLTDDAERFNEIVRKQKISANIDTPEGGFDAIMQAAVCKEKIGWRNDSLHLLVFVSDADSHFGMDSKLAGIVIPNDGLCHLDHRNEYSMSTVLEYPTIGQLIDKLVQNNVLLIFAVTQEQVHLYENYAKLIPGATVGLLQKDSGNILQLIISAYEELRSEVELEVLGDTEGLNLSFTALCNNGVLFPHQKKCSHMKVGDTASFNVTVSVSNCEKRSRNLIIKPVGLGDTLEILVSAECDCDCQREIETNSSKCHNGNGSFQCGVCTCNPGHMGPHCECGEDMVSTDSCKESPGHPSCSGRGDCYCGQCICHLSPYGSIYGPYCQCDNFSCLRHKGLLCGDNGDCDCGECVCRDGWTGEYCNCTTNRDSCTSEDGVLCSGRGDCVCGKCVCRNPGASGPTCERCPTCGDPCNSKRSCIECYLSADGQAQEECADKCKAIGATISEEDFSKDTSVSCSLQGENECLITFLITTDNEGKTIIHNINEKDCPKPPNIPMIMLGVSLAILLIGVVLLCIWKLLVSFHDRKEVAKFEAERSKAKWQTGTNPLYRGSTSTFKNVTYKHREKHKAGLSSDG
Chain of mouse β6 (HEK-293 cells transfected with mouse β6 alone) (mouse) (Q9Z0T9 22-787): as the sequence (Q9Z0T9 22-787, chain 2 of 2, further chain) above

The substance Human IgG1 (antibody) had a Percent Inhibition (J6.77 adhesion to CS-1 peptide of fibronectin, 5 ug/ml) in assay [1] of 26%. Further, the figures for the Geometric Mean Shift in [2] and in assay [9] were 108 and 54, respectively. Further, the percent of cells shifted was found to be 0% in assay [3]; 1% in [4]; 1% in assay [5]; 1% in assay [6]; 1% in assay [7]; 0% in assay [8].

Human IgG2 (antibody) yielded a Percent Inhibition (J6.77 adhesion to CS-1 peptide of fibronectin, 5 ug/ml) in [1] of 13%.

Turning to Human IgG4 (antibody), the Percent Inhibition (J6.77 adhesion to CS-1 peptide of fibronectin, 5 ug/ml) in assay [1] was found to be 15%.

In the case of Human IgG Isotype Control (antibody), the Percent Inhibition (A375M adhesion to osteopontin peptide, 5 µg/ml) in assay [10] stood at 3%. Also, the % Inhibition (K562 adhesion to fibronectin) in assay [11] was -12%. This substance came in with a Percent Inhibition (K562 adhesion to FN9-10 peptide of fibronectin, 5 µg/ml) in assay [11] of 11%. Further, the % Cells Shifted was 0% in assay [12], 1% in [13], 5% in assay [14] and 1% in assay [15]. Moreover, the GeoMean came to 7.39 in assay [12], 9.54 in assay [13], 1.66 in [14] and 7.23 in [15].

On to Mouse IgG1 (antibody), for which the Geometric Mean Shift was 20 in assay [16] and 13 in assay [17].

Regarding “Mouse IgG2 with Murine Secondary Antibody”, the % Cells Shifted was determined as 0% in assay [12], 1% in assay [13], 4% in assay [14] and 3% in assay [15]. For the same substance, the GeoMean is 11.2 in [12], 8.85 in assay [13], 1.67 in assay [14] and 11.2 in [15].

Take Mouse IgG2a (antibody): the Geometric Mean Shift in assay [18] was found to be 25; in assay [19], 36.

Regarding Mouse IgG Control (antibody), the Percent Inhibition (A375M adhesion to osteopontin peptide, 5 µg/ml) in [10] was 5%.

In the case of “murine αVβ6 antibody (Cat#MAB2077z, Chemicon)”, the Estimated IC50, n = 1 (HT29 adhesion to TGFβLAP) in assay [20] was 0.226 mg/L. Moreover, the Estimated IC50, n = 2 (HT29 adhesion to TGFβLAP) in assay [20] was 0.185 mg/L. Also, the Estimated IC50, n = 3 (HT29 adhesion to TGFβLAP) in assay [20] was 0.286 mg/L. Further, the % Cells Shifted in assay [12] amounted to 11%; in [13], 42%; in [14], 30%; in assay [15], 5%. In addition, the GeoMean in [12] was found to be 28.1; in assay [13], 55.5; in assay [14] it was 2.03; in [15], 15.4. Also, the percent of cells shifted in assay [3] stood at 11%; in assay [4], 5%; in assay [5] it was 0%; in assay [6], 45%; in [7] it was 1%; in assay [8], 20%. The same substance gave an ELISA OD in assay [21] of 6. Besides, the Geometric Mean Shift in assay [22] is 84; in assay [23], 122. The FMAT Count in assay [24] was 67. The same substance showed an FMAT FL1 in assay [24] of 659. The substance further returned an FMAT FL1 × Count in assay [24] of 44200.

Values taken from patent US20080057063A1.
